Kd and IC50 data for four molecules are collected here from PMC6707876 (Nature microbiology, 2019).

The target in assay [1] is T1, biotinylated BirA-tagged Sal-1 DBP-II (Plasmodium vivax, UniProt P22290, biotin (added with BirA ligase on the BirA tag)). As to the kind of experiment: BLI.
Assay [2] concerns the target T1, biotinylated BirA-tagged Sal-1 DBP-II. As to the kind of experiment: flow cytometry on cells. For orientation: A flow cytometer gives signals particle by particle.

T1 sequence (P22290 211-525): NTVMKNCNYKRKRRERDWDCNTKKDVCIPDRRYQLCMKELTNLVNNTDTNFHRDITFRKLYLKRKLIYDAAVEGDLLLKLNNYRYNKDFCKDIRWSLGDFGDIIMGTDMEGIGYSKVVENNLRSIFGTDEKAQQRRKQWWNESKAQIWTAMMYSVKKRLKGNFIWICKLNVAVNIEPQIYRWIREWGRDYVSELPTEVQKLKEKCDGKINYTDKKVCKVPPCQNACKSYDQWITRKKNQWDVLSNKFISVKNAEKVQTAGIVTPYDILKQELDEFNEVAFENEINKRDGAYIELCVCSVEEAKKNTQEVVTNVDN

B1: 092096 single-chain variable fragment (scFv, V domains shown)
VH: QVQLVQSGAEVKKPGASVKVSCKVSGYTLTELSMHWVRQAPGKGLEWMGGFDREDGESIYAQKFQGRVTLTEDTSTDSVYMELSNLRSDDTAVYFCATDFGGSYFYAFDIWGQGTMVTVSS
VL: not shown
In assay [1], B1 yielded a Kd of 7.63 ± 0.29 nM.

B2: human monoclonal antibody 092096 (full-length IgG1) (antibody, V domains shown)
VH: B1 VH
VL: not shown
Turning to B2, the IC50 in assay [2] amounted to 1.63 ± 1.07 nM.

B3: 053054 single-chain variable fragment (scFv, V domains shown)
VH: QVQLQESGPGLVKPSQTLSLTCNVSGDSINSGDYYWIWIRQPPGKGLEWIGNIYYSGTAYYNPSLKTRLIISIDTSTNQFSLKVTSVTAADTAIYYCARASTTVVSPWLDPWGQGTLVTVSS
VL: SYELTQPSSVAVAPGQTARIPCGGDNIESKGVHWYQQKPGQAPVLVVYDDHDRPSGIPERFSGSNSGNTATLTVSRVEAGDEADYYCQVWDTSSEHPVFGGGTKLTVL
For B3, the Kd in assay [1] is 7.44 ± 0.36 nM.

B4: human monoclonal antibody 053054 (full-length IgG1) (antibody, V domains shown)
VH: B3 VH
VL: B3 VL
In assay [2], B4 showed an IC50 of 4.88 ± 1.06 nM.

Usually Kd stands for a measure of binding affinity in units of concentration. One may read the IC50 as the concentration at which inhibition is half-maximal.
